In the nanobody polyreactivity screen of Harvey et al. (2022):

Assay: yeast display, Sf9 membrane polyspecificity reagent, FACS + sequencing; frameworks hold sequencing errors
Summary of the method: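 Sorting gates, low and high (top ~1%), were placed on anti-HA fluorescence to track expression and on streptavidin fluorescence to track reagent binding. A clone's polyreactivity label is taken from the gate it came out of. The reagent was 10% biotinylated, detergent-solubilized Sf9 membrane, applied for 1 hour at 4 °C to galactose-induced yeast display cells.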

| Sequence | polyreactivity (PSR sort gate) |
| --- | --- |
| KVQLVESGGGLVQAGGSLRLSCAASGFTLGYYAMGWYRQEPGKEREMVAAITSGGGTNYADSVKGRFTISRDNAKNTVYLQMNSLKPEDSAVYYCAARARWIYGMYSWGQGTQVTLSS | low polyreactivity |
| KVQLVESGGGLVQAGGSLRLSCAASGRIFGRNAMGGYRQAPGKERELVAAINVSSGGTYYADSVKGRFTISRDNAKNTVYLQMNSLKPEDTAVYFCAARARWAGLRYTRYYYWGQGTQVTVSS | high polyreactivity |
| KVQLVESGGGLVQAGGSLRLSCAASGRILVYNVMGWYRQAPGKEMEFVAAITSRDTSTYYADSVKGRFTISRDNAKNPVYLQMNSLKPEDTAVYYCAVRVGARVRYYSWGQGTQVTVSS | high polyreactivity |
| KVQLVESGGGLVQAGGSLRLSCAASGRTFPYYVMGWYRQAHGKERELVAAIDVGGGSTYYADSVKGRFTISRDNAKNTVYLQMNSLKPEVTAVYYCAAQVDYLAHYGYWGQGTQVTVSS | low polyreactivity |
| KVQLVESGGGLVQAGGSLRLSCAASGYIFSYYAMGWYRQAPGKERELVAAITASGGRTYYADSVKGRFTISRDNAKNTVYLQMNSQKPEDTAVYYCARASGIILQGQLVRWYRYNYLGQGTQVTVSS | high polyreactivity |
| KVQLVESGGGLVQAGGSLRLSCAHSGYIFGYYAMGCYRQAPGKERELVAAISSGGNTNYADSVKGRYTISRDNAKTTVYLQMNSLKPEDTAVNYCATRDRYKRIRYDYWGQGTQVTVSS | high polyreactivity |
| KVQLVESGGGLVQAGGSLRLSCPASGFTFKSYTMAWSSQAPGKERELVAAISRRDGSTYYADSVKGRFPISRDNAKNTVYFQMNSLKPEDTAVYYCNAYTYGSEFDYWGQGTQVTVST | high polyreactivity |
| KVQLVESGGGLVQARGSLRLSCAASGRIIRYYVMGWYRQAPGKERELVASISWRGTSTYYADSVKGRFTISRDNAKNTVYLQMNSLKPEDTAVYYCNAARPGKNYDSWGQGTQVTVSS | high polyreactivity |
| KVQLVESGGRVVQAGGSLRLSCAASGSIFGYNDMGWYRPAPGKERELVATITWGGGRTRYADSVKGRFTISRDNAKKTVYLQMNSLKPEETAVYYCARDRGKITPYDYWGQGTQVTVSS | low polyreactivity |
| KVQLVESGSGLVQAGGSHSISCAASGGTIACYVMGWYRPAPGKEREFVATISWSGTSTYYADSVKGRFTISRDNAKNTVDLLMYSLKPEDTAVFYCNKPGSSWPDFYSYNYWGLGTQVTVSS | low polyreactivity |
| LGQLQESGGGLVQAGGSLRLSCAASGDIFDADIMGWYREAPGKEREHVASITDGGSTNYADSVKGRFTISRDNAKNTVYLPMNSLKPENTAVLYCAAIAYPDLPTYFDYDSDYFDWGQGTQVTVSS | low polyreactivity |
| LQLVESGGGLVQAGGSLRLTSAASGSTFHRYAMGWYRQSPGKERELVAAISSRGGSTYYADSVKGRFTISRDNAKYTVYLQMNSLKPEDTAVYYCAVYGGRSGVPFDSMDYWGQGTQVTVTS | high polyreactivity |
| LVHLQESGGGLVQAGGSLRLSCAASGTISPAGYMGWYRPAPGKERELVASINVGGSTNYADSVKGRFTISRDNAKNTVYLQLNCLKPEVNAVYYCAVWGRYRLQLSYWGQGTQVTVSS | low polyreactivity |
| LVLLVESGGGLVQAGGSLRLSCAASGFSFACYGMGWYRQAPGNDRELVAALSWSGGRTYYADSVTGRFTISRDNAKNTVYLQMNSLKPEDTAVDYCYAYWNPASKYDFWGQGTQVTVTS | high polyreactivity |
| LVQAGGSLRLSCAASVNTSGKNAMGWYRQAPGKERELVAAISSAGSTNYADSVKGRFTISRDNAKNTVYLQMNSLKPEDTAVYYCNAVRRLATVKTYRFNYWGQGTQVTVSS | low polyreactivity |
| LVQLQDSGDGLVQAGGSLRLSCAASGNIFDADIKGWYRQAPGKERELVASIGIGGTTYYADSVKGRFSISRDNEKNTVYLQMNSLKPEDTAVYYCAARYLYYAYSYWGQGTQVTVSS | low polyreactivity |
| LVQLQESGGGLVQAGGSLRLSCAASGTISPGGNMGWYRQAPGKERELLASINVGGSTNYADSVKGRFTISRDNAINTVFLQMNSLKPDDNAVFYCAVWGRNRLQLSYWGQGTQVTVSS | low polyreactivity |
